We go through 46 substances from patent publication US11230581B2, “Peptides and combination of peptides for use in immunotherapy against ovarian cancer and other cancers” (Immatics Biotechnologies GmbH, priority 2015, dated 2022).

For the experiment, the target named is HLA-A*02:01 (Homo sapiens, UniProt P04439, D140Y/D185E/D98H/E176V/E277Q/G131W/G231S/I119V/I121R/I166T/I218V/L300P/L318F/N151K/N90K/P208A/P217A/Q86G/Q94H/R138H/R169H/T345S). The experiment can be described thus: MHC binding assay (UV-ligand exchange, β2m ELISA, peptide exchange yield). As to conditions: binding of HLA-class I restricted peptides to HLA-A*02:01, UV-ligand exchange. An outline of the steps:
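Yield of stabilized complexes quantified via the β2m light chain in an ELISA (streptavidin capture, 100-fold diluted monomers, HRP anti-β2m 2 ug/ml at 37 °C, TMB, A450). The complexes come from UV-triggered replacement of a photocleavable ligand by the candidate peptide.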

On to “373 (SLLEDKGLAEV; listed as Homo sapiens) [compound 373]”, for which the “Peptide exchange (MHC class I binding score, peptide exchange yield)” value (shortened to “Peptide exchange”) is recorded as ““++” (≥20% = ++)”.
For the substance “374 (FLLQQHLISA; listed as Homo sapiens) [compound 374]”, the “Peptide exchange” value was ““++” (≥20% = ++)”.
The value for “375 (SLTETIEGV; listed as Homo sapiens) [compound 375]” was ““++” (≥20% = ++)”; that for “376 (AMFESSQNVLL; listed as Homo sapiens) [compound 376]” was ““++” (≥20% = ++)”; that for “377 (FLLDSSASV; listed as Homo sapiens) [compound 377]” was ““++” (≥20% = ++)”.
“378 (ALGYFVPYV; listed as Homo sapiens) [compound 378]”: the “Peptide exchange” value was ““+++” (≥50 = +++)”.
Regarding “379 (IMEGTLTRV; listed as Homo sapiens) [compound 379]”, the “Peptide exchange” value is ““++” (≥20% = ++)”.
Take “380 (TLIEDEIATI; listed as Homo sapiens) [compound 380]”: the “Peptide exchange” value is given as ““++” (≥20% = ++)”.
Consider “381 (FIDEAYVEV; listed as Homo sapiens) [compound 381]”, for which the “Peptide exchange” value is ““++” (≥20% = ++)”.
With “382 (ALQNYIKEA; listed as Homo sapiens) [compound 382]”, the “Peptide exchange” value is listed as ““++” (≥20% = ++)”.
On to “383 (ALLELENSVTL; listed as Homo sapiens) [compound 383]”, for which the “Peptide exchange” value was ““+++” (≥50 = +++)”.
The value for “384 (ILFANPNIFV; listed as Homo sapiens) [compound 384]” was ““+++” (≥50 = +++)”; that for “385 (SLLEQGLVEA; listed as Homo sapiens) [compound 385]” was ““++” (≥20% = ++)”; that for “386 (ILFRYPLTI; listed as Homo sapiens) [compound 386]” was ““+++” (≥50 = +++)”.
Consider “387 (ALFQATAEV; listed as Homo sapiens) [compound 387]”, for which the “Peptide exchange” value is recorded as ““++++” (≥75% = ++++)”.
On to “388 (SLTIDGIRYV; listed as Homo sapiens) [compound 388]”, for which the “Peptide exchange” value is reported as ““+++” (≥50 = +++)”.
For “389 (LLADVTHLL; listed as Homo sapiens) [compound 389]”, the “Peptide exchange” value was ““++” (≥20% = ++)”.
For the substance “390 (ALFMKQIYL; listed as Homo sapiens) [compound 390]”, the “Peptide exchange” value is ““+++” (≥50 = +++)”.
Take “391 (YVYPQRLNFV; listed as Homo sapiens) [compound 391]”: the “Peptide exchange” value is on record as ““+++” (≥50 = +++)”.
“392 (ALLHPQGFEV; listed as Homo sapiens) [compound 392]”: the “Peptide exchange” value is ““++” (≥20% = ++)”.
For “393 (GLLDTQTSQVLTA; listed as Homo sapiens) [compound 393]” the value was ““++” (≥20% = ++)”; for “394 (LLAVIGGLVYL; listed as Homo sapiens) [compound 394]”, ““+++” (≥50 = +++)”.
For “395 (ALALGGIAVV; listed as Homo sapiens) [compound 395]” the value was ““++++” (≥75% = ++++)”; for “396 (ALLPDLPAL; listed as Homo sapiens) [compound 396]”, ““+++” (≥50 = +++)”; for “397 (YLFGERLLEC; listed as Homo sapiens) [compound 397]”, ““+++” (≥50 = +++)”.
On to “398 (KLLEEDGTIITL; listed as Homo sapiens) [compound 398]”, for which the “Peptide exchange” value is recorded as ““++” (≥20% = ++)”.
For “399 (YLFEPLYHV; listed as Homo sapiens) [compound 399]”, the “Peptide exchange” value is reported as ““+++” (≥50 = +++)”.
Regarding “400 (SLLTEQDLWTV; listed as Homo sapiens) [compound 400]”, the “Peptide exchange” value was ““++” (≥20% = ++)”.
Consider “401 (ILLDDTGLAYI; listed as Homo sapiens) [compound 401]”, for which the “Peptide exchange” value was ““+++” (≥50 = +++)”.
With “402 (VLFSGALLGL; listed as Homo sapiens) [compound 402]”, the “Peptide exchange” value is recorded as ““++” (≥20% = ++)”.
Take “403 (KLYDRILRV; listed as Homo sapiens) [compound 403]”: the “Peptide exchange” value is listed as ““++” (≥20% = ++)”.
Take “405 (ALYDVFLEV; listed as Homo sapiens) [compound 405]”: the “Peptide exchange” value is given as ““++” (≥20% = ++)”.
In the case of “407 (YLMDLINFL; listed as Homo sapiens) [compound 407]”, the “Peptide exchange” value was ““+++” (≥50 = +++)”.
As for “408 (VLDDSIYLV; listed as Homo sapiens) [compound 408]”, the “Peptide exchange” value is ““++” (≥20% = ++)”.
“409 (LLDAMNYHL; listed as Homo sapiens) [compound 409]”: the “Peptide exchange” value is ““++” (≥20% = ++)”.
For “412 (YLDDLNEGVYI; listed as Homo sapiens) [compound 412]” the value was ““++” (≥20% = ++)”; for “426 (RLADKSVLV; listed as Homo sapiens) [compound 426]”, ““+++” (≥50 = +++)”; for “427 (ALLPLSPYL; listed as Homo sapiens) [compound 427]”, ““+++” (≥50 = +++)”.
Consider “428 (KLGHTDILVGV; listed as Homo sapiens) [compound 428]”, for which the “Peptide exchange” value was ““++” (≥20% = ++)”.
Turning to “429 (GLVNDLARV; listed as Homo sapiens) [compound 429]”, the “Peptide exchange” value is ““++” (≥20% = ++)”.
In the case of “430 (HLYSSIEHLTT; listed as Homo sapiens) [compound 430]”, the “Peptide exchange” value is recorded as ““+++” (≥50 = +++)”.
The value for “431 (SLVNVVPKL; listed as Homo sapiens) [compound 431]” was ““++” (≥20% = ++)”.
For “432 (TLIEESAKV; listed as Homo sapiens) [compound 432]”, the “Peptide exchange” value was ““++” (≥20% = ++)”.
“433 (AMLNEPWAV; listed as Homo sapiens) [compound 433]”: the “Peptide exchange” value is listed as ““+++” (≥50 = +++)”.
Regarding “434 (KVSNSGITRV; listed as Homo sapiens) [compound 434]”, the “Peptide exchange” value was ““++” (≥20% = ++)”.
For “436 (HLAEVSAEV; listed as Homo sapiens) [compound 436]”, the “Peptide exchange” value was ““+++” (≥50 = +++)”.
